Assay results reported in article PMC2603141 (Virology, 2008).

Experiments:
[1] = target: the molecule itself; experiment: reducing and non-reducing SDS-PAGE
[2] = target: the molecule itself; experiment: negative-stain electron microscopy

B1: PIV 5 hemagglutinin-neuraminidase (HN) ectodomain beginning at residue 56, HN(ecto56) (domain or fragment)
chain: SPSSGLGSITDLLNNILSVANQIIYNSAVALPLQLDTLESTLLTAIKSLQTSDKLEQNCSWSAALINDNRYINGINQFYFSIAEGRNLTLGPLLNMPSFIPTATTPEGCTRIPSFSLTKTHWCYTHNVILNGCQDHVSSNQFVSMGIIEPTSAGFPFFRTLKTLYLSDGVNRKSCSISTVPGGCMMYCFVSTQPERDDYFSAAPPEQRIIIMYYNDTIVERIINPPGVLDVWATLNPGTGSGVYYLGWVLFPIYGGVIKGTSLWNNQANKYFIPQMVAALCSQNQATQVQNAKSSYYSSWFGNRMIQSGILACPLRQDLTNECLVLPFSNDQVLMGAEGRLYMYGDSVYYYQRSNSWWPMTMLYKVTITFTNGQPSAISAQNVPTQQVPRPGTGDCSATNRCPGFCLTGVYADAWLLTNPSSTSTFGSEATFTGSYLNTATQRINPTMYIANNTQIISSQQFGSSGQEAAYGHTTCFRDTGSVMVYCIYIIELSSSLLGQFQIVPFIRQVTLS
modifications: carbohydrate at 4 N-linked glycosylation sites; inter-chain disulfide bond (covalent dimers)
[1]
  stoichiometry N: 2
[2]
  stoichiometry N: 4
